The record followed here is the Human Domainome abundance scans (Beltran et al. 2025).

First the molecules themselves.
B1: Retinoic acid receptor RXR-alpha, residues 132 to 208; numbered along this chain, P19793 (parent)
chain: KHICAICGDRSSGKHYGVYSCEGCKGFFKRTVRKDLTYTCRDNKDCLIDKRQRNRCQYCRYQKCLAMGMKREAVQEE

± gives the uncertainty stated by the source.

This data set covers variants of B1. Kind of data set: abundance fitness (aPCA) (normalised: wild type 0, dead -1); higher = more abundant; growth selection in yeast, the domain comes from the species named. The note with it: Homo sapiens.
In the case of KHICAICGDRSSGKHYGVYSCEGCKGFFKRTVRKDLTYTCRDNKDCLYDKRQRNRCQYCRYQKCLAMGMKREAVQEE [I48Y], the abundance fitness was -0.342 ± 0.14.

For the variant KHICAICGDRSSGKHYGVYSCEGCKGFFKRTVRKDLTYTCRDNKDCLWDKRQRNRCQYCRYQKCLAMGMKREAVQEE [I48W], the abundance fitness was 0.007 ± 0.041.

For the variant KHICAICGDRSSGKHYGVYSCEGCKGFFKRTVRKDLTYTCRDNKDCLIGKRQRNRCQYCRYQKCLAMGMKREAVQEE [D49G], the abundance fitness turned out to be 0.07 ± 0.035.

As for KHICAICGDRSSGKHYGVYSCEGCKGFFKRTVRKDLTYTCRDNKDCLILKRQRNRCQYCRYQKCLAMGMKREAVQEE [D49L], the abundance fitness was -0.102 ± 0.049.

Regarding KHICAICGDRSSGKHYGVYSCEGCKGFFKRTVRKDLTYTCRDNKDCLIPKRQRNRCQYCRYQKCLAMGMKREAVQEE [D49P], the abundance fitness is -0.018 ± 0.077.

Take KHICAICGDRSSGKHYGVYSCEGCKGFFKRTVRKDLTYTCRDNKDCLIAKRQRNRCQYCRYQKCLAMGMKREAVQEE [D49A]: the abundance fitness was 0.009 ± 0.044.

On to KHICAICGDRSSGKHYGVYSCEGCKGFFKRTVRKDLTYTCRDNKDCLIEKRQRNRCQYCRYQKCLAMGMKREAVQEE [D49E], for which the abundance fitness is -0.005 ± 0.058.

Turning to KHICAICGDRSSGKHYGVYSCEGCKGFFKRTVRKDLTYTCRDNKDCLIVKRQRNRCQYCRYQKCLAMGMKREAVQEE [D49V], the abundance fitness stood at 0.036 ± 0.044.

Regarding KHICAICGDRSSGKHYGVYSCEGCKGFFKRTVRKDLTYTCRDNKDCLIWKRQRNRCQYCRYQKCLAMGMKREAVQEE [D49W], the abundance fitness amounted to 0.06 ± 0.049.

Regarding KHICAICGDRSSGKHYGVYSCEGCKGFFKRTVRKDLTYTCRDNKDCLINKRQRNRCQYCRYQKCLAMGMKREAVQEE [D49N], the abundance fitness stood at 0.048 ± 0.065.

On to KHICAICGDRSSGKHYGVYSCEGCKGFFKRTVRKDLTYTCRDNKDCLITKRQRNRCQYCRYQKCLAMGMKREAVQEE [D49T], for which the abundance fitness is -0.07 ± 0.093.

In the case of KHICAICGDRSSGKHYGVYSCEGCKGFFKRTVRKDLTYTCRDNKDCLISKRQRNRCQYCRYQKCLAMGMKREAVQEE [D49S], the abundance fitness is -0.037 ± 0.053.

With KHICAICGDRSSGKHYGVYSCEGCKGFFKRTVRKDLTYTCRDNKDCLICKRQRNRCQYCRYQKCLAMGMKREAVQEE [D49C], the abundance fitness is -0.117 ± 0.075.

For KHICAICGDRSSGKHYGVYSCEGCKGFFKRTVRKDLTYTCRDNKDCLIFKRQRNRCQYCRYQKCLAMGMKREAVQEE [D49F], the abundance fitness is -0.109 ± 0.24.

Regarding KHICAICGDRSSGKHYGVYSCEGCKGFFKRTVRKDLTYTCRDNKDCLIIKRQRNRCQYCRYQKCLAMGMKREAVQEE [D49I], the abundance fitness stood at 0.069 ± 0.1.

With KHICAICGDRSSGKHYGVYSCEGCKGFFKRTVRKDLTYTCRDNKDCLIKKRQRNRCQYCRYQKCLAMGMKREAVQEE [D49K], the abundance fitness was 0.026 ± 0.076.

On to KHICAICGDRSSGKHYGVYSCEGCKGFFKRTVRKDLTYTCRDNKDCLIRKRQRNRCQYCRYQKCLAMGMKREAVQEE [D49R], for which the abundance fitness was -0.183 ± 0.04.

KHICAICGDRSSGKHYGVYSCEGCKGFFKRTVRKDLTYTCRDNKDCLIHKRQRNRCQYCRYQKCLAMGMKREAVQEE [D49H]: the abundance fitness is -0.011 ± 0.19.

As for KHICAICGDRSSGKHYGVYSCEGCKGFFKRTVRKDLTYTCRDNKDCLIQKRQRNRCQYCRYQKCLAMGMKREAVQEE [D49Q], the abundance fitness was found to be 0.036 ± 0.076.

Regarding KHICAICGDRSSGKHYGVYSCEGCKGFFKRTVRKDLTYTCRDNKDCLIYKRQRNRCQYCRYQKCLAMGMKREAVQEE [D49Y], the abundance fitness was -0.183 ± 0.18.

In the case of KHICAICGDRSSGKHYGVYSCEGCKGFFKRTVRKDLTYTCRDNKDCLIDMRQRNRCQYCRYQKCLAMGMKREAVQEE [K50M], the abundance fitness came to 0.043 ± 0.065.

Take KHICAICGDRSSGKHYGVYSCEGCKGFFKRTVRKDLTYTCRDNKDCLIDDRQRNRCQYCRYQKCLAMGMKREAVQEE [K50D]: the abundance fitness was 0.019 ± 0.06.

As for KHICAICGDRSSGKHYGVYSCEGCKGFFKRTVRKDLTYTCRDNKDCLIDSRQRNRCQYCRYQKCLAMGMKREAVQEE [K50S], the abundance fitness is -0.108 ± 0.05.

With KHICAICGDRSSGKHYGVYSCEGCKGFFKRTVRKDLTYTCRDNKDCLIDERQRNRCQYCRYQKCLAMGMKREAVQEE [K50E], the abundance fitness was -0.077 ± 0.052.

For KHICAICGDRSSGKHYGVYSCEGCKGFFKRTVRKDLTYTCRDNKDCLIDVRQRNRCQYCRYQKCLAMGMKREAVQEE [K50V], the abundance fitness came to 0.052 ± 0.04.

As to KHICAICGDRSSGKHYGVYSCEGCKGFFKRTVRKDLTYTCRDNKDCLIDHRQRNRCQYCRYQKCLAMGMKREAVQEE [K50H], the abundance fitness was -0.029 ± 0.072.

As for KHICAICGDRSSGKHYGVYSCEGCKGFFKRTVRKDLTYTCRDNKDCLIDIRQRNRCQYCRYQKCLAMGMKREAVQEE [K50I], the abundance fitness was -0.026 ± 0.077.

As to KHICAICGDRSSGKHYGVYSCEGCKGFFKRTVRKDLTYTCRDNKDCLIDCRQRNRCQYCRYQKCLAMGMKREAVQEE [K50C], the abundance fitness is -0.153 ± 0.066.

Regarding KHICAICGDRSSGKHYGVYSCEGCKGFFKRTVRKDLTYTCRDNKDCLIDPRQRNRCQYCRYQKCLAMGMKREAVQEE [K50P], the abundance fitness is -0.029 ± 0.051.

Take KHICAICGDRSSGKHYGVYSCEGCKGFFKRTVRKDLTYTCRDNKDCLIDNRQRNRCQYCRYQKCLAMGMKREAVQEE [K50N]: the abundance fitness is 0.124 ± 0.074.

As to KHICAICGDRSSGKHYGVYSCEGCKGFFKRTVRKDLTYTCRDNKDCLIDGRQRNRCQYCRYQKCLAMGMKREAVQEE [K50G], the abundance fitness worked out at 0.015 ± 0.031.

For the variant KHICAICGDRSSGKHYGVYSCEGCKGFFKRTVRKDLTYTCRDNKDCLIDFRQRNRCQYCRYQKCLAMGMKREAVQEE [K50F], the abundance fitness is -0.008 ± 0.095.

Consider KHICAICGDRSSGKHYGVYSCEGCKGFFKRTVRKDLTYTCRDNKDCLIDRRQRNRCQYCRYQKCLAMGMKREAVQEE [K50R], for which the abundance fitness was -0.026 ± 0.037.

Take KHICAICGDRSSGKHYGVYSCEGCKGFFKRTVRKDLTYTCRDNKDCLIDTRQRNRCQYCRYQKCLAMGMKREAVQEE [K50T]: the abundance fitness is -0.099 ± 0.065.

Consider KHICAICGDRSSGKHYGVYSCEGCKGFFKRTVRKDLTYTCRDNKDCLIDQRQRNRCQYCRYQKCLAMGMKREAVQEE [K50Q], for which the abundance fitness was found to be 0.047 ± 0.06.

Take KHICAICGDRSSGKHYGVYSCEGCKGFFKRTVRKDLTYTCRDNKDCLIDARQRNRCQYCRYQKCLAMGMKREAVQEE [K50A]: the abundance fitness was 0.037 ± 0.042.
